What all share (assay): SPR, KD relative to WT C2;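 also: biacore SPR at 37 °C, anti-C2 mAbs captured via immobilised goat anti-human IgG, C2 alanine or serine surface mutants as analytes, 1:1 model fitted, double-referenced sensograms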
One assay deals with T1, human C2 T491A (human, UniProt P06681 21-752).
T1 sequence: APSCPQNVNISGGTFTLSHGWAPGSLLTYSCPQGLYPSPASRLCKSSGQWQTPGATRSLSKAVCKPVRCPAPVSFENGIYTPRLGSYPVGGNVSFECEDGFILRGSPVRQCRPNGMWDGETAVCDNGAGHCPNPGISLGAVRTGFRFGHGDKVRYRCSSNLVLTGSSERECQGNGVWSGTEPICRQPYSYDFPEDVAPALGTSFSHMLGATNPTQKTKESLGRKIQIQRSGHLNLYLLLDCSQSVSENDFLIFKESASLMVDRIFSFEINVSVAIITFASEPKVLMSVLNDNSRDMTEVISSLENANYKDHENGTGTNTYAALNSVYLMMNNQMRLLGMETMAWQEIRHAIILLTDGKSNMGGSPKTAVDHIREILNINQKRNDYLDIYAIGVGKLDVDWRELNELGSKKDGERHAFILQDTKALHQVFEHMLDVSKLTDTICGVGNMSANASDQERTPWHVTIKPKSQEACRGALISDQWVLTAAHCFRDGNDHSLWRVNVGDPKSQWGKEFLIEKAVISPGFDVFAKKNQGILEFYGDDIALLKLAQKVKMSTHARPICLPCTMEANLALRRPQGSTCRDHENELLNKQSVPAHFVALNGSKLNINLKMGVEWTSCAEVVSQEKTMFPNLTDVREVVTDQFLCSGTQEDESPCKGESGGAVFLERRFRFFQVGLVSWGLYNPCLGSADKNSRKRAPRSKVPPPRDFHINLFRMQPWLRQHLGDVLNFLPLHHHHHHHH

Another assay addresses T2, human C2 E556A (human, UniProt P06681 21-752).
T2 sequence: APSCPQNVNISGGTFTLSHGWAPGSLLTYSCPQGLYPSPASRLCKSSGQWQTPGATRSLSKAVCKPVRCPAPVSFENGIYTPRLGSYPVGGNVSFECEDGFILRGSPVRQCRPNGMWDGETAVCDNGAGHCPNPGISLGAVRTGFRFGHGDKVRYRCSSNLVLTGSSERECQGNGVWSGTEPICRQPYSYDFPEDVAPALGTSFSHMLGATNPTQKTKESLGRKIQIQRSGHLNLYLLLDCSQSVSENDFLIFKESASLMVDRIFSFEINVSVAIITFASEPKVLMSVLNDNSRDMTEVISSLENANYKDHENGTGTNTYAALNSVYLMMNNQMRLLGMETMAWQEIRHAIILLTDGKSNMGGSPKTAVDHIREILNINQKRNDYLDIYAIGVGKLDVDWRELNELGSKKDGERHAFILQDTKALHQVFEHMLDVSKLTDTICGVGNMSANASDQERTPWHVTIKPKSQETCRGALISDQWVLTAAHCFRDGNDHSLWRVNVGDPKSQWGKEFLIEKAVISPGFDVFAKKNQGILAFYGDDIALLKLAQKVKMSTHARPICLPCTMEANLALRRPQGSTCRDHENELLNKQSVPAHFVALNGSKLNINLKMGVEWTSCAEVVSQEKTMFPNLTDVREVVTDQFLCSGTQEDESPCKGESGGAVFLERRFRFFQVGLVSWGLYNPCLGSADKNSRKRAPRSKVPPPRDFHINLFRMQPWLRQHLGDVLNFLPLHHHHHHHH

The target in another assay is T3, human C2 S708A (human, UniProt P06681 21-752).
T3 sequence: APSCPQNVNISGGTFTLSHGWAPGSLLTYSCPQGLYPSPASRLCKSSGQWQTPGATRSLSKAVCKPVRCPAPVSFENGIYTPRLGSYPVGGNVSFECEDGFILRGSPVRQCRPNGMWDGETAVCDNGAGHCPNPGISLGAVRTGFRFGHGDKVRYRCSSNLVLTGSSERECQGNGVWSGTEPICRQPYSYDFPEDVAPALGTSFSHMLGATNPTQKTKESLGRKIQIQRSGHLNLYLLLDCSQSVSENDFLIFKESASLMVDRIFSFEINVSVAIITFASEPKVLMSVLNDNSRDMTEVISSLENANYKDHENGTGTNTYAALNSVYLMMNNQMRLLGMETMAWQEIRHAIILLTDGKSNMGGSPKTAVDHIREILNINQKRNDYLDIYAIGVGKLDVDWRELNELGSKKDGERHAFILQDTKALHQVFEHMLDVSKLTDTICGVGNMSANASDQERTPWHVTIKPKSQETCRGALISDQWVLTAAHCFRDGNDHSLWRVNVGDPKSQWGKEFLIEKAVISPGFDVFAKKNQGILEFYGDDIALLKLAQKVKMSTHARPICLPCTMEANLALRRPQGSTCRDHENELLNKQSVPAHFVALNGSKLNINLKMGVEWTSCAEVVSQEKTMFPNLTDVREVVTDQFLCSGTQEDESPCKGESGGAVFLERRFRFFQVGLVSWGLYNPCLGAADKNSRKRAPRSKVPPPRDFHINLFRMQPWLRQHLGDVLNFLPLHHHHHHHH

For another assay, the target named is T4, human C2 K676S (human, UniProt P06681 21-752).
T4 sequence: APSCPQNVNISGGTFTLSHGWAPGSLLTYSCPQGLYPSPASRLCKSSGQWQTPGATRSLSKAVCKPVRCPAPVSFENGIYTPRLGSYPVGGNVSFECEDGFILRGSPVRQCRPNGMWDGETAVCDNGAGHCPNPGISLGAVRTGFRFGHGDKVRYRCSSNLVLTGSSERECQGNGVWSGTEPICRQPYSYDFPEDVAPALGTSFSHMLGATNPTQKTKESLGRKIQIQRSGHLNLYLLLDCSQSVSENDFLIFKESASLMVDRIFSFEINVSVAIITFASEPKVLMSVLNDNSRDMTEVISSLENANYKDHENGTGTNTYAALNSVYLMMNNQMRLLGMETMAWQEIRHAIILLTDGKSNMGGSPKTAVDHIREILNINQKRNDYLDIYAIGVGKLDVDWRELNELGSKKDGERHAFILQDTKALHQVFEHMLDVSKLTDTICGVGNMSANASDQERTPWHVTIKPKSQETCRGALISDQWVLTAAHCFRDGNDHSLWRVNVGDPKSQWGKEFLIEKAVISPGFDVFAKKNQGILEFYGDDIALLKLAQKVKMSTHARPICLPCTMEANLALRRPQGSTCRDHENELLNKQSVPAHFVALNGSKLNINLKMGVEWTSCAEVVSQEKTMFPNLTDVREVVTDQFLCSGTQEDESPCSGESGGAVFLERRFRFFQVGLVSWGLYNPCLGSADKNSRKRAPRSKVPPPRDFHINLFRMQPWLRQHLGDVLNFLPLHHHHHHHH

Drawing on US20220332804A1 (CSL INNOVATION, published 2022), this text covers Fold diff for 1 molecule.

B1: RF16-226 (antibody, human IgG4 S228P, lambda)
heavy: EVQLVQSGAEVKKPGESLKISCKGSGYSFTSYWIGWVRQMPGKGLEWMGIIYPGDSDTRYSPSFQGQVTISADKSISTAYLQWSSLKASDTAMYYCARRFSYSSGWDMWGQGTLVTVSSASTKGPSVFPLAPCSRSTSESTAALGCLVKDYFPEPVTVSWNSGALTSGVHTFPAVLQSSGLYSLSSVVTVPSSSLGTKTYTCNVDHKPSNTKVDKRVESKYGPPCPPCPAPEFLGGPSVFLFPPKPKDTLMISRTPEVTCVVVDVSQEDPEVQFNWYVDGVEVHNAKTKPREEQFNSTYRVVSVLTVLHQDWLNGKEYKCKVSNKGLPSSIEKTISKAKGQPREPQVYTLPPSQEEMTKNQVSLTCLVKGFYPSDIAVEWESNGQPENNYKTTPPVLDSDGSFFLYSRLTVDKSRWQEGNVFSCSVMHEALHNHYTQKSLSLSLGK
light: SYELTQPPSVSVSPGQTARITCSGDALTSKYVAWYQQKSGLAPLLVIYEDTRRPSGIPAKFSGSSSGSVATLTISGAHGDDEADYYCYSTDASGHQRVFGGGTKLTVLSQPKAAPSVTLFPPSSEELQANKATLVCLISDFYPGAVTVAWKADGSPVKAGVETTKPSKQSNNKYAASSYLSLTPEQWKSHRSYSCQVTHEGSTVEKTVAPTECS
notes: pH-dependent anti-C2 antibody from a phage display library; also called WT
Turning to B1, the Fold diff with human C2 T491A amounted to 2 fold; in the assay with human C2 E556A, 1 fold; with human C2 S708A it was 2 fold; with human C2 K676S, 2 fold.
